This note sets out measurements from doi:10.1101/2020.07.28.225359 (bioRxiv, 2020).

Data set [1] deals with TRIM21 coiled-coil (CC235) (human) (UniProt P19474). The experiment in a line: SEC-MALS.
The target is the same in data set [2]. The experiment in a line: ITC.
The data set “SAXS” concerns the molecule itself. In words: SAXS.

Regarding “TRIM21 coiled-coil (CC235) (from UniProt P19474 132-235) (domain or fragment)”, the stoichiometry N in data set [1] was 2. In data set [2], this molecule gave a Kd of 7 µM and a dH (dimer dissociation) of 65 kcal/mol.

B1: MBP-T21CC (MBPCC235) (domain or fragment, human, UniProt P19474 132-235, looked up)
chain: AQEYQEKLQVALGELRRKQELAEKLEVEIAIKRADWKKTVETQKSRIHAEFVQQKNFLVEEEQRQLQELEKDEREQLRILGEKEAKLAQQSQALQELISELDRR
With B1, in “SAXS”, the “stoichiometry N” value came to 2.
